Residue numbers refer to the chain shown, from its start. Names may count otherwise. One block for each binder: values may come before it.
Target: plasma purified human complement protein C3 (human) (UniProt P01024)
Assay: cell-based or functional assay

Sequence of plasma purified human complement protein C3 (human) (P01024 23-667, chain 1 of 2): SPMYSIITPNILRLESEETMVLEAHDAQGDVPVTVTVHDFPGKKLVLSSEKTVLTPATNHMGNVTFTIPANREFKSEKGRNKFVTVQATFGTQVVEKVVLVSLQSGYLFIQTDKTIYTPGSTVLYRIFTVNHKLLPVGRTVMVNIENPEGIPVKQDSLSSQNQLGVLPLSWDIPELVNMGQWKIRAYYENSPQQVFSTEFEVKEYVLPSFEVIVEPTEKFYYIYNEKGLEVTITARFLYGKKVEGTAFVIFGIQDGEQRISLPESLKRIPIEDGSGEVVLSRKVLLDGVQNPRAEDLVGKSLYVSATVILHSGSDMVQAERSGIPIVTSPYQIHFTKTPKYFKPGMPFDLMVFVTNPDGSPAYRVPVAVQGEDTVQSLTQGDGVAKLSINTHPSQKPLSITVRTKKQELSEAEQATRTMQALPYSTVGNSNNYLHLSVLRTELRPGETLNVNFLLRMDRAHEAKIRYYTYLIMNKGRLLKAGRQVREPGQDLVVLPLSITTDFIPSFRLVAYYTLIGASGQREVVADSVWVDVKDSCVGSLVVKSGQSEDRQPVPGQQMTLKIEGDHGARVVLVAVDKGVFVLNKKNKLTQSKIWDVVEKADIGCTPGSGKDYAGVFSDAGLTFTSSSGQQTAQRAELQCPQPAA
Sequence of plasma purified human complement protein C3 (human) (P01024 672-1663, chain 2 of 2): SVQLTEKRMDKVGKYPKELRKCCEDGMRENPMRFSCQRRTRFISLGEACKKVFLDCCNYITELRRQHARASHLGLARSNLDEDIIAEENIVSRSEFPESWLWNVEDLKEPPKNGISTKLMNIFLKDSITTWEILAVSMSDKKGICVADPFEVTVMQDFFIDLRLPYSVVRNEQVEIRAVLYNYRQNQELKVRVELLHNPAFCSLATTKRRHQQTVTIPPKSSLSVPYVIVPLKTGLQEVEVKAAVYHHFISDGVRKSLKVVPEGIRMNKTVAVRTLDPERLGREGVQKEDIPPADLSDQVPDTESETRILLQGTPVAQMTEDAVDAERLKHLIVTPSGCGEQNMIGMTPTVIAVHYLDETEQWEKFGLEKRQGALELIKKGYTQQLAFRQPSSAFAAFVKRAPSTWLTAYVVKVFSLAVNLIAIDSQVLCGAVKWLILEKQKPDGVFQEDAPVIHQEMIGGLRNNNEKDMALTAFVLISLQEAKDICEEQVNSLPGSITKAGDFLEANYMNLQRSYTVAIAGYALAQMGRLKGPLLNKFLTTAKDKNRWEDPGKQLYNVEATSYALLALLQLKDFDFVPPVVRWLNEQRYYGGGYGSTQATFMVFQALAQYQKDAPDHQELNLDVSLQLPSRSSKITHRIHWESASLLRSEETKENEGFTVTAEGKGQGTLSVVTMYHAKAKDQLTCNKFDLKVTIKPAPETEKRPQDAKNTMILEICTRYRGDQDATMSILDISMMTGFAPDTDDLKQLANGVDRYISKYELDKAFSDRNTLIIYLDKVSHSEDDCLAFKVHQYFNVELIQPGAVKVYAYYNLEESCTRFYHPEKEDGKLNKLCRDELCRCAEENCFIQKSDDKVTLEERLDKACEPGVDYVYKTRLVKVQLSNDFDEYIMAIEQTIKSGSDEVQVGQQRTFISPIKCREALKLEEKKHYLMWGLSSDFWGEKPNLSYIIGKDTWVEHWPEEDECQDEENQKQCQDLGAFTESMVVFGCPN

B1: MTSP-1 protease domain I41S/F97del/T98S/F99L/C122S/Q192S (enzyme)
chain: VVGGTDADEGEWPWQVSLHALGQGHSCGASLISPNWLVSAAHCYIDDRGFRYSDPTQWTAFLGLHDQSQRSAPGVQERRLKRIISHPFFNDSLDYDIALLELEKPAEYSSMVRPISLPDASHVFPAGKAIWVTGWGHTQYGGTGALILQKGEIRVINQTTCENLLPQQITPRMMCVGFLSGGVDSCSGDSGGPLSSVEADGRIFQAGVVSWGDGCAQRNKPGVYTRLPLFRDWIKENTGV
EC50 hC3 cleavage: 23.2 nM

B2: MTSP-1 Q38H/D60bT/F60eS/Y60gW/D96K/F97G/ins97aV/T98P/F99L/C122S/G151H/Q175L/Q192D (enzyme)
chain: VVGGTDADEGEWPWQVSLHALGHGHICGASLISPNWLVSAAHCYIDTRGSRWSDPTQWTAFLGLHDQSQRSAPGVQERRLKRIISHPFFNKGVPLDYDIALLELEKPAEYSSMVRPISLPDASHVFPAGKAIWVTGWGHTQYGGTHALILQKGEIRVINQTTCENLLPQLITPRMMCVGFLSGGVDSCDGDSGGPLSSVEADGRIFQAGVVSWGDGCAQRNKPGVYTRLPLFRDWIKENTGV
EC50 of hC3 cleavage: 215 nM

B5: MTSP-1 protease domain I41S/ins97aV/C122S/Q192D (enzyme)
chain: VVGGTDADEGEWPWQVSLHALGQGHSCGASLISPNWLVSAAHCYIDDRGFRYSDPTQWTAFLGLHDQSQRSAPGVQERRLKRIISHPFFNDFVTFDYDIALLELEKPAEYSSMVRPISLPDASHVFPAGKAIWVTGWGHTQYGGTGALILQKGEIRVINQTTCENLLPQQITPRMMCVGFLSGGVDSCDGDSGGPLSSVEADGRIFQAGVVSWGDGCAQRNKPGVYTRLPLFRDWIKENTGV
EC50 hC3 cleavage: 336 nM

B6: MTSP-1 protease domain I41S/F97G/ins97aA/T98L/C122S/Q192A (enzyme)
chain: B5 chain with F92G, V93A, T94L, D189A
EC50 hC3 cleavage: 6.75 nM

B10: MTSP-1 protease domain I41E/F97L/F99L/C122S/Q192A (enzyme)
chain: VVGGTDADEGEWPWQVSLHALGQGHECGASLISPNWLVSAAHCYIDDRGFRYSDPTQWTAFLGLHDQSQRSAPGVQERRLKRIISHPFFNDLTLDYDIALLELEKPAEYSSMVRPISLPDASHVFPAGKAIWVTGWGHTQYGGTGALILQKGEIRVINQTTCENLLPQQITPRMMCVGFLSGGVDSCAGDSGGPLSSVEADGRIFQAGVVSWGDGCAQRNKPGVYTRLPLFRDWIKENTGV
EC50 hC3 cleavage: 47.4 nM

B11: MTSP-1 protease domain I41D/F99L/C122S/I136M/G151N/Q192T/D217L/K224R (enzyme)
chain: B10 chain with E26D, L92F, I131M, G145N, A188T, D214L, K221R
EC50 hC3 cleavage: 32.2 nM

B13: MTSP-1 protease domain I41D/F99L/C122S/G151N/Q192T/D217E (enzyme)
chain: B10 chain with E26D, L92F, G145N, A188T, D214E
EC50 hC3 cleavage: 22 nM

B16: MTSP-1 protease domain I41D/F60eI/D96E/F99L/C122S/G151N/Q192T (enzyme)
chain: B10 chain with E26D, F50I, D91E, L92F, G145N, A188T
EC50 hC3 cleavage: 47.9 nM

B18: MTSP-1 protease domain Y59F/C122S/G151N/Q192T (enzyme)
chain: B10 chain with E26I, Y44F, L92F, L94F, G145N, A188T
EC50 hC3 cleavage: 288 nM

B19: MTSP-1 protease domain D96E/C122S/G151N/Q192T (enzyme)
chain: B10 chain with E26I, D91E, L92F, L94F, G145N, A188T
EC50 hC3 cleavage: 298 nM

Other lines, results leading:

EC50 of hC3 cleavage: 13.1 nM
B3: MTSP-1 Q38H/I41S/F60eS/Y60gW/D96K/F97G/ins97aV/T98P/F99L/C122S/G151H/Q175L/Q192D (enzyme)
chain: B2 chain with I26S, T47D

EC50 hC3 cleavage: 7.34 nM
B4: MTSP-1 protease domain Q38H/I41S/D60bT/F60eS/Y60gW/D96K/F97G/F99L/C122S/G151H/Q175L/Q192D (enzyme)
chain: B10 chain with Q23H, E26S, D47T, F50S, Y52W, D91K, L92G, G145H, Q169L, A188D

EC50 hC3 cleavage: 13.2 nM
B7: MTSP-1 protease domain I41T/F97R/ins97aV/T98L/C122S/Q192S (enzyme)
chain: B5 chain with S26T, F92R, T94L, D189S

EC50 hC3 cleavage: 5.3 nM
B8: MTSP-1 protease domain I41S/F97A/ins97aV/T98L/C122S/Q192A (enzyme)
chain: B5 chain with F92A, T94L, D189A

EC50 hC3 cleavage: 25.3 nM
B9: MTSP-1 protease domain I41D/F99L/M117T/C122S/G151N/Q192T/A204D/D217E (enzyme)
chain: B10 chain with E26D, L92F, M112T, G145N, A188T, A200D, D214E

EC50 hC3 cleavage: 31 nM
B12: MTSP-1 protease domain I41S/F97D/F99L/C122S/Q192V (enzyme)
chain: B10 chain with E26S, L92D, A188V

EC50 hC3 cleavage: 29.4 nM
B14: MTSP-1 protease domain I41S/F97V/T98N/F99L/C122S/Q192S (enzyme)
chain: B10 chain with E26S, L92V, T93N, A188S

EC50 hC3 cleavage: 34.2 nM
B15: MTSP-1 protease domain I41D/C122S/G151N/Q192T/D217E (enzyme)
chain: B10 chain with E26D, L92F, L94F, G145N, A188T, D214E

EC50 hC3 cleavage: 19.1 nM
B17: MTSP-1 protease domain I41S/F97L/F99L/C122S/Q192S (enzyme)
chain: B10 chain with E26S, A188S
